Experiment: label from the status in PepcDB records

Row | Sequence | protein production
1 | MEDSSGQSLLFQFILLLILTLLSAFFSASEMALVSLNRSRVEQKAEEGDKKFIRLLKVLENPNNFLSTIQVGITFIGLLQGASLSASLGAVIATWFGNVAWAKTAGSVVSLVVLTYISIVFGELYPKRIAMNLKENLAIYSAPVIIVTGKIVSPFVWILSASTNLLSRLTPMTFDDADEPMTRDEIEYMLTKSEDTLEAEEIEMLQGIFSLDELMAREVMVPRTDAFMIDIEDDTQENIQAILKQSFSRIPVYEDNKDKIIGVIHTKKLLKAAYELGFENVNLRRIMNEPLFVPETIFVDDLLAAFRNTNNQMAILLDEYGGVAGLVTFEDLLEEIVGEIDDETDKASVEVREIGENTYIVEGSMTLNDFNEHFDTELESDDVDTIAGYYLTGVGAIPTQEVKEHYEVINKDKRLEFINDKVKDGRVTKLKVIITAAPEEAGE | failed
2 | EKMTRDEIAYMLTNSEETLDADEIEMLQGVFSLDELMAREVMVPRTDAFMVDIQDDSQAIIQSILKQNYSRIPVYDGDKDNVIGIIHTKSLLKAGFVDGFDNIVWKRILQDPLFVPETIFVDDLLKELRNTQRQMAILLDEYGGMAGLVTLEDLLEEIVGEID | not failed
3 | MRILAFPYTHTLSHLSRVLAVALELRRMGHEVVFAGESAKVSFVSQQGFDVVPIHEPDPEMLFGNIRSGKLRFVEDAELLQMLTADIEVIRSLKPDLVLSDGRFSAPLSTHLTNVRHAAIVNASSTEYRALPYVPFFDWMPPWLISRDAMIWKALVRLNLFLEMKLFDNVMKVFKRLSRELNTNRTVTATNCLTGKDITLLADIPEYFPSRNLPASYHYVGPLTWKSVLAPPAWWPLDIPSSPLVYVTMGTTGVSEFFSKLGPSLSTSFFSSIVTTGGQSSELKPMPGKVYVESYLDGDLVMERSDVVICHGGNGTIYQALSHGKPVIGIPTIPDQKFNMRRVEAMGFGKSLDLKQFLEKPSLLADTVKQVLSDHSFRNSAQKIQAVLKSYNAATTSAKILIDSILLEHHHHHH | failed
4 | MAIKLSSIDQFEQVIEENKYVFVLKHSETCPISANAYDQFNKFLYERDMDGYYLIVQQERDLSDYIAKKTNVKHESPQAFYFVNGEMVWNRDHGDINVSSLAQAEE | not failed
5 | MVWTGLLIGVLFGVILQRGRICFNSAFRDVLIFKDNYLMRLAALTLGLESITLLIFAQAGIITLNPKPLNWIGNIIGGFIFGMGMVLAGGCASGVTYRTGEGMTTAWFAALAYALTAHATKKGLFSGWIKWLSNYTVTVSNTNPVYAPKTGPTIATVLGISPWIASIIFLALMLWYAFGVKNKSQRPSKLNWIAASVLIAILAPIAWWASASTGRNYGLGITGGWINLVSVYANNASLNWEGAEILGIIIGAAISAIAGKEFKLRMPKNPKTYAQVLLGGFLMGFGAVTAGGCNIGHFLTGVPTLAISSIVASIFFILGNWTMAWFLFGRQK | failed
6 | VATLYNDLKNKQTSVVEPKKPLPETWKNMHPCMVLNYMRPQCTFIVSGGTGTNQNNTFSMSVCVDNCEFNAEGPSKKAARYKLSALVCNKLFGTDYPQK | failed
7 | MRNHKQSDRVLNLPAGYFGIVLGTIGMGFAWRYASQIWGISHWPGDIMVILAMIIWALLTLAFLSRLVRFPHSVMAEVRHPVMSSFVSLFPATTMLVAIGFVPWYRPLAVALFSVGVVIQLAYAAWQTAGLWRGAHPEEATTPGLYLPTVANNFISAMACGALGYNDAGLVFLGAGVFSWLSLEPVILQRLRSCGELPAVLRTSLGIQLAPALVACSAWLSVNGGEGDTLAKMLFGYGLLQLLFMLRLMPWYLSQPFNASFWSFSFGVSALATTGLHLGHGSESGLFHILAVPLFIFTNAIIALLLVRTFLLLVQGTLLIRTERAALLKTEEKNDRS | failed
8 | MDFAFEKVARDWFVRWSKGRSEKYAGQVMRNFERWVFPAIGNLDIRQVRTADVVGCLRVMEARGIVDTLRKTKNSLKMVFAFAVGSGMMEINPVAQIGSGVFERLEHHHHHH | failed
9 | MQIGKVTGSLWATRKDEKLNGLKLLLVEITDEVEDKRHSIVAADNAGAGNGDLVLVTTGSAARASTGDNTIPVDACIVGIIDSVERYGLEHHHHHH | failed
10 | STFYVEFNRKDSDKTLAKAFQNKKIRQALSLAINRKSYVNNTLGNGSTVSKGYVSEDLAKNPTTGKDFTTDAAVPSAVDYNLTKAKKLWKEGLKEIGETKLNIKLLSDDTDAGKKATEFIQGGWEKLPGLTVTNQNVPFKTRLQRSQNGNFDTVISAWNADFTDPISFLSLFTSDNSYNNGKYDSAAYDDAVKKAEGADANNKTARWADMVAAEKQLMNDQGVIPIYQQASATLTRSNLKGIIYNTAGSNYNFKYMSVK | failed
11 | MELKDYYAILGVQPTDDLKTIKTAYRRLARKYHPDVSKENDAEAKFKDLAEAWEVLKDEQRRAEYDQLWQHRNDPGFGRQRQTHEQSYSQQDFDDIFSSMFGQQAHQRRRQHAARGHDLEIEVAVFLEETLAEQTRTISYNLPVYNVFGMIESETPKTLNVKIPAGVVDGQRIRLKGQGTPGENGGPNGDLWLVIHIAPHPLFDIVGHNLEIVLPLAPWEAALGAKVTVPTLKESILLTVPPGSQAGQRLRIKGKGLVSKTHTGDLFAVIKIVMPTKPDEKARELWQQLAAAEASFDPRKTWGKA | not failed
12 | MDINNKARIHWACRRGMRELDISIMPFFEHEYDSLSDDEKRIFIRLLECDDPDLFNWLMNHGKPADAELEMMVRLIQTRNRERGPVAI | not failed
13 | MITQNIESLNNIAKIQHAANTDYLTDLANRRAFFRSAESRIKEYINKKVPYCLAMIDVDFFKKVNDTYGHDSGDQVLKVIALYMRKHFGAGLTARLGGEEFAVLLHGLDADYLHNKLDDFRREIAVSSIPAGDTSISITLSLGVVFDSEDELSKQMNEADNALYAAKENGRNQIVVFGAELDDLEHHHHHH | not failed
14 | MSEDELYELLKTKYGFDEFRPGQLAVIQKLLAGQDVLAVLPTGTGKSLIYQLVGTALPGLVVVVSPLISLMQDQVARLNYQGEKQVAALTSQLDYGARQYLLNHLGQLKFLFISPEMLGQDIIQTALMQVQLALLVIDEAHCISTWGPDFRPDYRRLGQIRQRLQAPTTLMLTATATQRVRQDILTQLTVPDAQQILYSVNRPNIYLAVEQVNDEASKRATLQHLVTSARGPVIVYFTSKRQTDLIAEWLRTTTTLRVAAYHAGLATDDRFKIQQQFMAGQLDVICATSAFGMGINKADIRLVIHYHLPTTLADYVQEIGRAGRDGQQAMAIMLYAPGDENLVRNLNELTAATPNEIQQDYSRYQAQQPPTDDRSKVLQSYWLQGTPPTTVATIFADRQVAKERELRTLMSYVQTTTCHRTVMLTYFGEPAVTHTDQCCQLAAEPLPLAALGLMATHDEPTATIMSWDQHLAQLFLPNS | failed
15 | MAHGVNIYNVYSISIIALLASSFLLYAQEAKGLENAMLFLSIIFPYAFYLNGHILLYLVLPAYLIVTSSVTFHYYIYELIPTLIYYFGILPKFINYNVRLMTILWES | failed
16 | MTDTNTLLVTSLEEGIGKTAITLALATRAHDAGYDVGYMKPKGTRLRSAVGKTRDEDPMLARELLDLETDLHDMEPIVYSPTFIQEAIRGREDPDDLRERLQEGIETCSDGTDMLLVEGSSDLATGSIVDLTDIDIAELLDARVLLVTGYDTPSDTDEILSAAEAIGDRLDGVLFNGVTDATVDELADDVVPFLEGEGIPVHGILPRDRSLAGVTVADLARNLGADILTGDANTDVHVERFSVGAMSGSSALERFRRTRDAVVVTGGDRSEVQTAALEASGINALLLTGGFQPASAVIGQAAEKNVPVLSVQSDTRTTIDRVEEVLRTGQTRNEATVDRMRTLLDDGVDVESLLSVDLLEHHHHHH | not failed
17 | KVKELNLHELCAVCLEDFKPRDELGICPCKHAFHRKCLIKWLEVRKVCPLCNMPVLQLAQL | not failed
18 | MDSRAAAEPIPHVSPSPFPNPSAVNQTLEERLGLDLVQVYDWDWWGTLVQSGESLLLILSTLWCILLARVVCQKLRLHGSADLCYATEFLLVILPCILLVSVAVDYSGYIGLLMLVATLWFLRTSRALERARTRVQFDLGGNRPMCLSILRALTHLITAVCILAIDFGSFYRPYRKSRQFGAKLMDTGIGLFVFTMAMVSRRTRHWSDLRRSVIYSALPLILLGLARTVSILTLSYGQDAHEYGQHLNAFFTLGFTKFLGSLVSILARKDLHLLPLGFGLLVIHQFGLSVLGISDYVMNEDVERSSFLNANREGLVSLPGFVGLFLLSIYVNRWMVAKSLLTYSEFVRKLRRLFYLVLILWTSFVISAYEIGISRVTCNLGYVIWMLAIGSTTLCASFGAIDFAINSVMPWDPNPWEDHEKGLLSGEAVVKKRGGSVVPFTISQALNKNGLTFFLVANILTGMVNIFLRPEDRSHSESVIILLVYMFLATKLVHELLKRGIRLA | failed
19 | MAAVGSGGYARNDAGEKLPSVMAGVPARRGQSSPPPAPPICLRRRTRLSTASEETVQNRVSLEKVLGITAQNSSGLTCDPGTGHVAYLAGCVVVILDPKENKQQHIFNTARKSLSALAFSPDGKYIVTGENGHRPAVRIWDVEEKNQVAEMLGHKYGVACVAFSPNMKHIVSMGYQHDMVLNVWDWKKDIVVASNKVSCRVIALSFSEDSSYFVTVGNRHVRFWFLEVSTETKVTSTVPLVGRSGILGELHNNIFCGVACGRGRMAGSTFCVSYSGLLCQFNEKRVLEKWINLKVSLSSCLCVSQELIFCGCTDGIVRIFQAHSLHYLANLPKPHYLGVDVAQGLEPSFLFHRKAEAVYPDTVALTFDPIHQWLSCVYKDHSIYIWDVKDINRVGKVWSELFHSSYVWNVEVYPEFEDQRACLPSGSFLTCSSDNTIRFWNLDSSPDSHWQKNIFSNLAPALQMCGRGHSRQPNTPSPGEIAS | failed
20 | MTPFTVDILIPIWNRPVETRNCLVTLMETTPSARLILIDNGSDRETERLLEEFSEILGERALFLKTSANQGFVRAVNRSLAQVEAPYAVVMQNTTLVTRGWLEPMVELADSRPDAGIIVPRLELEDGQGRRPKAAPPAGPVTEVSHGSFAASMVRRELVERQGGFDEELDGGPWCLRDYSRRAFRNGFLTLALDGAVVTYAEEVPLGSVARREETVRRSAETCRARWGREDAFCIYFPKDAEPEAVHGKLDVILRGARMGQCFTLILHPGLHKSLMETGHAPLHSNIALAPLPRFFATGEIRKIIGKLASVRGDTVTVAGVDGLSIPGVEGARSFSWLADEIRRRHESLYRPESPLEHHHHHH | not failed
21 | MSKRANKLVIVTEKVLLKKVAKIIEEAGATGYTVVDTGGKGSRNVRSTGKPNTSDTDSNVKFEVLTENREMAEKIADQVAIKFFTDYAGIIYICEAEVLYGRTFCGPDGC | not failed
22 | MKGDRERQADLSPREGPSVPRPVLLQTEPRSVFPGDTSRPWSPAALPARAPGDRWCGRRRRSPGNASYLDSDISEKSRSASEEEKSHALGACHCAENAFQDSQKSLVPSRGQKMTSGTKAKVPLTALSQKWKRDREQTLEAAYVPVVVDPRGQNPDTSIRFSFYNSQYSNSLNPFYTLQKPTCGYLYQRETDHTRKRFDVPPANLILWRT | failed
23 | MGEKPGTRVFKKSSPNCKLTVYLGKRDFVDHLDKVDPVDGVVLVDPDYLKDRKVFVTLTCAFRYGREDLDVLGLSFRKDLFIATYQAFPPVPNPPRPPTRLQDRLLRKLGQHAHPFFFTIPQNLPCSVTLQPGPEDTGKACGVDFEIRAFCAKSLEEKSHKRNSVRLVIRKVQFAPEKPGP | failed
24 | MIKKFKNYDQIIKELFVIAIPTAFESLLFQMVTFFDNFMISYLGSFHVTGVSLANRVTFLFFIIVFGLGTALSAYVSQAIAKKKFLQVRQSFAYILLIGTTIGIIFFIFSFLFPRNIIKLFTANQDSLNFGSEYLKIISLSYVLMAYSFLSAMGFKSAKEVKIPLYVTSIVVLINIVFNYILIFGFSMGIKGAAYATVLARIVEFVFYFLYSLISSNSYYRIKFGDFFAPKVVTRANLKLIIPVLSHEIFWVLSITILHAFYARVGSIEYASFAVASNLFDICFVLLHGMGLATGVVIGHLMIYDKKHVRSVGFFLSFLGFLLGIFVVILLIGISSFAPYIFSKLDSPELVSVFIYVFASIVIFKAFTAQVLVGVFRASGIPNVCFFIESGVIVFYTLPVAYLLVFYTNLSLPIVVFIVNLEEIIKNIFIIIEFFHDDWIREIEYEELA | failed
